Source: patent US10941182 (Amgen, dated 2021)
Starred links: 1 amine or outer side, 2 acyl side, 3 side chain; linkers in the order of their positions; H or OH if unused. Non-standard residues stand in square brackets, D forms with d. No end group written: not given here. rCha = cyclohexylalanine with ψ(CH2NH) reduced amide bond, C1CCC(C[C@@H](C[*:2])N[*:1])CC1; rhArg = homoarginine with ψ(CH2NH) reduced amide bond, N=C(N)NCCCC[C@@H](C[*:2])N[*:1]; DrSer = D-serine with ψ(CH2NH) reduced amide bond, C(O[*:3])[C@H](C[*:2])N[*:1]; dBip = N[C@H](Cc1ccc(-c2ccccc2)cc1)C(=O)O; Oic = O=C(O)[C@@H]1C[C@@H]2CCCC[C@@H]2N1; Phe(4-Cl) = N[C@@H](Cc1ccc(Cl)cc1)C(=O)O; Phe(4-I) = N[C@@H](Cc1ccc(I)cc1)C(=O)O; hArg = N=C(N)NCCCC[C@H](N)C(=O)O; Cha = N[C@@H](CC1CCCCC1)C(=O)O; Gly(N-CH2CH2OH) = O=C(O)CNCCO; αMeOrn = C[C@](N)(CCCN)C(=O)O; αMeP = C[C@@]1(C(=O)O)CCCN1; αMeS = C[C@](N)(CO)C(=O)O; Nle = CCCC[C@H](N)C(=O)O; Orn = NCCC[C@H](N)C(=O)O; BLeu = β-leucine; βAla = NCCC(=O)O

T1: rat APJ receptor (rat, UniProt Q9JHG3 1-377)
T1 sequence (looked up): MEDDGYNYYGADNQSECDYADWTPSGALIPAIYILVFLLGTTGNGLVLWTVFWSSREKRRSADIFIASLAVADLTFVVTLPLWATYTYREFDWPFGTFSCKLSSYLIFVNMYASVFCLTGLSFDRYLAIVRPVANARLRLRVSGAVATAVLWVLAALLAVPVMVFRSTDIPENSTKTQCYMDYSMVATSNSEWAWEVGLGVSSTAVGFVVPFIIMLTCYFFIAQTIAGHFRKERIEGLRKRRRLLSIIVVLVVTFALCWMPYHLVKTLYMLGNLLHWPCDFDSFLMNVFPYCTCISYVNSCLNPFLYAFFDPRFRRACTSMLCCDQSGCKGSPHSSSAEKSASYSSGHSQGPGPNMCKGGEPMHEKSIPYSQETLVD

T2: human APJ receptor (human, UniProt P35414 1-380)
T2 sequence (looked up): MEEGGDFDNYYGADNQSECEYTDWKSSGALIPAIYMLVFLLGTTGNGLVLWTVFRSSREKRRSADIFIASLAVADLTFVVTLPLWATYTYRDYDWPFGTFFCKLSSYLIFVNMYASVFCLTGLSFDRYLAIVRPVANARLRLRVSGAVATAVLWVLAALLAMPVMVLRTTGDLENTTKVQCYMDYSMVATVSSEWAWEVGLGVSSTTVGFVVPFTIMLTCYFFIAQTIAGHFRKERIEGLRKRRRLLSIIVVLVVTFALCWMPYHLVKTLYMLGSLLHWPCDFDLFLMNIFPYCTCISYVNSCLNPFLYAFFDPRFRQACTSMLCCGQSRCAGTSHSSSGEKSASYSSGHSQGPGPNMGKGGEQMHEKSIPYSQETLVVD

B1: apelin polypeptide SEQ ID NO: 46 (peptide)
peptide: Ac-[Orn]F[hArg][hArg]QRP[hArg][Cha]SHKGP[Phe(4-I)]P[dBip]-OH
SMILES: CC(=O)N[C@@H](CCCN)C(=O)N[C@@H](Cc1ccccc1)C(=O)N[C@@H](CCCCNC(=N)N)C(=O)N[C@@H](CCCCNC(=N)N)C(=O)N[C@@H](CCC(N)=O)C(=O)N[C@@H](CCCNC(=N)N)C(=O)N1CCC[C@H]1C(=O)N[C@@H](CCCCNC(=N)N)C(=O)N[C@@H](CC1CCCCC1)C(=O)N[C@@H](CO)C(=O)N[C@@H](Cc1c[nH]cn1)C(=O)N[C@@H](CCCCN)C(=O)NCC(=O)N1CCC[C@H]1C(=O)N[C@@H](Cc1ccc(I)cc1)C(=O)N1CCC[C@H]1C(=O)N[C@H](Cc1ccc(-c2ccccc2)cc1)C(=O)O
B2: apelin polypeptide SEQ ID NO: 31 (peptide)
peptide: Ac-[Orn]F[hArg][hArg]Q[hArg]P[hArg][Cha][Gly(N-CH2CH2OH)]HKG[Oic][Nle]P[Phe(4-Cl)]-OH
SMILES: CCCC[C@H](NC(=O)[C@@H]1C[C@@H]2CCCC[C@@H]2N1C(=O)CNC(=O)[C@H](CCCCN)NC(=O)[C@H](Cc1c[nH]cn1)NC(=O)CN(CCO)C(=O)[C@H](CC1CCCCC1)NC(=O)[C@H](CCCCNC(=N)N)NC(=O)[C@@H]1CCCN1C(=O)[C@H](CCCCNC(=N)N)NC(=O)[C@H](CCC(N)=O)NC(=O)[C@H](CCCCNC(=N)N)NC(=O)[C@H](CCCCNC(=N)N)NC(=O)[C@H](Cc1ccccc1)NC(=O)[C@H](CCCN)NC(C)=O)C(=O)N1CCC[C@H]1C(=O)N[C@@H](Cc1ccc(Cl)cc1)C(=O)O

These binders were tested against T1, rat APJ receptor (assay: cell-based or functional assay).

Binder | EC50 Rat APJ Receptor [pM]
Ac-[Orn]F[hArg][hArg]Q[rhArg]P[hArg][Cha]SHKG[Oic][Nle]P[Phe(4-Cl)]-OH (also: reduced amide bond (CH2NH) at residue 6) [apelin polypeptide SEQ ID NO: 38] | 1300
Ac-[Orn]F[hArg][hArg][BLeu][hArg]P[hArg][Cha]SHKG[Oic][Nle]P[Phe(4-Cl)]-OH [apelin polypeptide SEQ ID NO: 29] | 301
Ac-[Orn]F[hArg][hArg]Q[hArg]P[hArg][Cha]SH[αMeOrn]G[Oic][Nle]P[Phe(4-Cl)]-OH [apelin polypeptide SEQ ID NO: 36] | 1940
[Orn]F[hArg][hArg]Q[hArg]P[hArg][Cha]SHKG[Oic][Nle][βAla][Phe(4-Cl)] [apelin polypeptide SEQ ID NO: 710] | 1790
B1 | 1040
Ac-[Orn]F[hArg][hArg]Q[hArg][αMeP][hArg][Cha]SHKG[Oic][Nle]P[Phe(4-Cl)]-OH [apelin polypeptide SEQ ID NO: 33] | 318
B2 | 703
[Orn]F[hArg][hArg]Q[hArg]P[hArg][Cha]SHKG[Oic][Nle]P[Phe(4-Cl)] [apelin polypeptide SEQ ID NO: 714] | 271
Ac-[Orn]F[hArg][hArg]Q[hArg]P[hArg][rCha]SHKG[Oic][Nle]P[Phe(4-Cl)]-OH (also: reduced amide bond (CH2NH) at residue 9) [apelin polypeptide SEQ ID NO: 42] | 247
Ac-[Orn]F[hArg][hArg]Q[hArg]P[hArg][Cha][DrSer]HKG[Oic][Nle]P[Phe(4-Cl)]-OH (also: reduced amide bond at D-Ser10 (DrSer)) [apelin polypeptide SEQ ID NO: 44] | 3790
Ac-[Orn]F[hArg][hArg]Q[hArg]P[hArg][Cha][αMeS]HKG[Oic][Nle]P[Phe(4-Cl)]-OH [apelin polypeptide SEQ ID NO: 35] | 185
Ac-[Orn]F[hArg][hArg]Q[hArg]P[hArg][Cha]SHKG[Oic][Nle][αMeP][Phe(4-Cl)]-OH [apelin polypeptide SEQ ID NO: 37] | 136

Each binder was assayed against T2, human APJ receptor (assay: cell-based or functional assay).

Binder | EC50 Human APJ Receptor [pM]
Ac-[Orn]F[hArg][hArg]Q[rhArg]P[hArg][Cha]SHKG[Oic][Nle]P[Phe(4-Cl)]-OH (also: reduced amide bond (CH2NH) at residue 6) [apelin polypeptide SEQ ID NO: 38] | 86.9
Ac-[Orn]F[hArg][hArg][BLeu][hArg]P[hArg][Cha]SHKG[Oic][Nle]P[Phe(4-Cl)]-OH [apelin polypeptide SEQ ID NO: 29] | 116
Ac-[Orn]F[hArg][hArg]Q[hArg]P[hArg][Cha]SH[αMeOrn]G[Oic][Nle]P[Phe(4-Cl)]-OH [apelin polypeptide SEQ ID NO: 36] | 355
[Orn]F[hArg][hArg]Q[hArg]P[hArg][Cha]SHKG[Oic][Nle][βAla][Phe(4-Cl)] [apelin polypeptide SEQ ID NO: 710] | 785
B1 | 390
Ac-[Orn]F[hArg][hArg]Q[hArg][αMeP][hArg][Cha]SHKG[Oic][Nle]P[Phe(4-Cl)]-OH [apelin polypeptide SEQ ID NO: 33] | 98.5
B2 | 116
[Orn]F[hArg][hArg]Q[hArg]P[hArg][Cha]SHKG[Oic][Nle]P[Phe(4-Cl)] [apelin polypeptide SEQ ID NO: 714] | 168
Ac-[Orn]F[hArg][hArg]Q[hArg]P[hArg][rCha]SHKG[Oic][Nle]P[Phe(4-Cl)]-OH (also: reduced amide bond (CH2NH) at residue 9) [apelin polypeptide SEQ ID NO: 42] | 44.9
Ac-[Orn]F[hArg][hArg]Q[hArg]P[hArg][Cha][DrSer]HKG[Oic][Nle]P[Phe(4-Cl)]-OH (also: reduced amide bond at D-Ser10 (DrSer)) [apelin polypeptide SEQ ID NO: 44] | 997
Ac-[Orn]F[hArg][hArg]Q[hArg]P[hArg][Cha][αMeS]HKG[Oic][Nle]P[Phe(4-Cl)]-OH [apelin polypeptide SEQ ID NO: 35] | 86.1
Ac-[Orn]F[hArg][hArg]Q[hArg]P[hArg][Cha]SHKG[Oic][Nle][αMeP][Phe(4-Cl)]-OH [apelin polypeptide SEQ ID NO: 37] | 67.2
